Data on 79 sequences can be found in the supplement of paper PMC10126150.

For this data set, the system named is ATP. The experiment in a line: switch fluorescence ratio, 500 uM ATP over buffer (Cy3 cluster intensity, sum of 5 cycles each) (fold (ratio)); higher = stronger signal-on switching upon ATP binding; sequences stand for … in TCGTCGGCAGCGTCAGATGTGTATAAGAGACAGTTTTTTTTTTTTTTTTTTTTTTTTT…TC. Conditions: aptamer strand: ATP DNA aptamer (quencher-CACCTGGGGGAGTATTGCGGAGGAAGG + anchor), 100 nM annealed; ATP concentration: 500 uM. In outline: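 Between each of five buffer/ATP cycles, the flow-cell was stripped with NaOH and re-annealed. Each cycle imaged Cy3-labelled switching-strand clusters, annealed to 100 nM quencher-labelled ATP aptamer on a modified Illumina MiSeq flow-cell, first in selection buffer and then after 15 min with 500 uM ATP at 22 °C. The fluorescence ratio is summed target-cycle over summed buffer-cycle Cy3 intensity per cluster, averaged per switch-domain sequence, with clusters outside 100-1000 RFU excluded.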

± gives the standard deviation of the averaged measurements.
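Also: ATP exposure 15 min at 22 °C before imaging.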

Take TTTGGTGGAA: the switch fluorescence ratio worked out at 1.01 ± 0.044.
With TTTGGTGTCC the figure was 0.984 ± 0.017; with TTTGGTTATA, 1 ± 0.012.
Take TTTGGTTCCT: the switch fluorescence ratio came to 1.014 ± 0.0091.
TTTGGTTCTG: the switch fluorescence ratio came to 1.01 ± 0.012.
With TTTGGTTGGA the figure was 0.992 ± 0.038; with TTTGTAAAGA, 1 ± 0.018; with TTTGTAAGGT, 1.032 ± 0.0089.
Take TTTGTAAGTA: the switch fluorescence ratio worked out at 1 ± 0.013.
Consider TTTGTACGCA, for which the switch fluorescence ratio was determined as 1.71 ± 1.
The figure for TTTGTACTGG is 1.01 ± 0.041; for TTTGTACTTT it is 1.01 ± 0.041; for TTTGTAGGGA it is 1.02 ± 0.028.
Regarding TTTGTATAGT, the switch fluorescence ratio worked out at 1.003 ± 0.0019.
With TTTGTATGG the figure was 0.9819 ± 0.0042; with TTTGTATGGG, 0.972 ± 0.018; with TTTGTCAAAC, 1.11 ± 0.13.
In the case of TTTGTCATGG, the switch fluorescence ratio amounted to 1.04 ± 0.037.
As for TTTGTCGCAT, the switch fluorescence ratio was found to be 1.14 ± 0.067.
On to TTTGTCGCGG, for which the switch fluorescence ratio is 1.02 ± 0.025.
Consider TTTGTCTGTG, for which the switch fluorescence ratio is 0.983 ± 0.03.
In the case of TTTGTGAATT, the switch fluorescence ratio amounted to 0.972 ± 0.012.
TTTGTGATCA: the switch fluorescence ratio came to 0.998 ± 0.032.
Regarding TTTGTGCACC, the switch fluorescence ratio worked out at 0.9941 ± 0.005.
TTTGTGCGTC: the switch fluorescence ratio is 0.977 ± 0.055.
The figure for TTTGTGGACG is 1.08 ± 0.08; for TTTGTGGCTG it is 0.986 ± 0.037.
With TTTGTGGGC the figure was 0.981 ± 0.028; with TTTGTGGGTA, 1.01 ± 0.039.
The figure for TTTGTGGTGG is 1.01 ± 0.012; for TTTGTGTAAA it is 1 ± 0.032.
Regarding TTTGTGTGCG, the switch fluorescence ratio worked out at 0.904 ± 0.047.
The figure for TTTGTGTGGA is 1.03 ± 0.0059; for TTTGTGTGGG it is 1.03 ± 0.03; for TTTGTTAAG it is 1.02 ± 0.018.
With TTTGTTAGAT the figure was 0.993 ± 0.022; with TTTGTTAGGT, 1 ± 0.031; with TTTGTTATAT, 0.9839 ± 0.0039.
With TTTGTTCGGA the figure was 0.9795 ± 0.0059.
With TTTGTTGAAA, the switch fluorescence ratio came to 1.02 ± 0.018.
With TTTGTTGAGC the figure was 1.44 ± 0.66.
With TTTGTTGAGT, the switch fluorescence ratio was 1 ± 0.026.
With TTTGTTGATA, the switch fluorescence ratio was 0.983 ± 0.032.
For TTTGTTGGTG, the switch fluorescence ratio is 1 ± 0.029.
On to TTTGTTTAAA, for which the switch fluorescence ratio was determined as 0.974 ± 0.027.
With TTTGTTTAAG the figure was 0.973 ± 0.012; with TTTGTTTCAC, 1.04 ± 0.043.
With TTTGTTTGCA the figure was 1.01 ± 0.054.
In the case of TTTGTTTGTA, the switch fluorescence ratio worked out at 1.01 ± 0.017.
Turning to TTTGTTTTAG, the switch fluorescence ratio came out at 0.983 ± 0.031.
With TTTGTTTTAT the figure was 1 ± 0.034; with TTTGTTTTTT, 0.994 ± 0.03; with TTTTAAAACT, 1.05 ± 0.039.
Turning to TTTTAAACAG, the switch fluorescence ratio came to 1.028 ± 0.0066.
The figure for TTTTAAAGGA is 1 ± 0.023.
With TTTTAAAGGC, the switch fluorescence ratio is 1.02 ± 0.031.
The figure for TTTTAAATAG is 1.01 ± 0.024.
Turning to TTTTAACACT, the switch fluorescence ratio turned out to be 1.035 ± 0.0085.
As to TTTTAACCGG, the switch fluorescence ratio came to 0.974 ± 0.025.
With TTTTAACCTA the figure was 1.01 ± 0.019; with TTTTAACGGA, 1.03 ± 0.041; with TTTTAAGAAA, 3.11 ± 3.
Turning to TTTTAAGAGT, the switch fluorescence ratio was 0.992 ± 0.028.
Consider TTTTAAGATT, for which the switch fluorescence ratio came out at 0.999 ± 0.047.
With TTTTAAGCAA the figure was 1.53 ± 0.17; with TTTTAAGCCG, 1.01 ± 0.069.
With TTTTAAGGAT the figure was 1 ± 0.024; with TTTTAAGGGG, 1.02 ± 0.046; with TTTTAAGTCG, 1.05 ± 0.014.
With TTTTAAGTGC the figure was 1 ± 0.027; with TTTTAATCAG, 0.9842 ± 0.0036.
As for TTTTAATGGT, the switch fluorescence ratio was 1.02 ± 0.03.
TTTTAATTAT: the switch fluorescence ratio is 1.05 ± 0.026.
The figure for TTTTAATTG is 0.961 ± 0.038; for TTTTAATTTA it is 1.03 ± 0.043.
For TTTTACAAGT, the switch fluorescence ratio was determined as 0.982 ± 0.03.
Take TTTTACAATT: the switch fluorescence ratio came to 0.9885 ± 0.0015.
Take TTTTACAGCC: the switch fluorescence ratio came to 1.052 ± 0.0051.
With TTTTACCAG the figure was 1.02 ± 0.051.
